According to publication PMC4043820:

Molecular target: OsWRKY53 (WT) (Oryza sativa (rice)) (UniProt A7BEY7)
Test: EMSA
Settings: 12 mM HEPES-KOH pH 8.0, 60 mM KCl, 4 mM MgCl2, 1 mM EDTA, 12% glycerol, 1 mM DTT, 2.5 mM PMSF, 0.1 ug protein in 20 ul, 20 min on ice; 6% PAGE in 1x TBE at …

OsWRKY53 (WT) (Oryza sativa (rice)), sequence (A7BEY7 entry or part of it): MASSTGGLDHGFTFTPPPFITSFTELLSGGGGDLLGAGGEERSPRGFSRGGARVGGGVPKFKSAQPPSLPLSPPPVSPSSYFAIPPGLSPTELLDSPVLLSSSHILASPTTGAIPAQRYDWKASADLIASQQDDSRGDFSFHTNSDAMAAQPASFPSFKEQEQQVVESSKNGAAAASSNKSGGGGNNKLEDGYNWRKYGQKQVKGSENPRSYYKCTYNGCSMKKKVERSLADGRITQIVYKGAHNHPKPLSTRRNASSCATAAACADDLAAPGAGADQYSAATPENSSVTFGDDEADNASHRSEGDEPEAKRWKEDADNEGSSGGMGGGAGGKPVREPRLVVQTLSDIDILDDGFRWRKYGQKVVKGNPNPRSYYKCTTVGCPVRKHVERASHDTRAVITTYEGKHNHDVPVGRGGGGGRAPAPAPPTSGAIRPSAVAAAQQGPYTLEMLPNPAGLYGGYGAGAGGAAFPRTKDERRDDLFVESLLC

In the case of “TTTGGGGATGCTTCGGCGAAGGGGGTGAGGTCAAAGCTCGTGCGGTTTGACCGGTCAGACGAGGCGGCTGAGGCTCGCGC (double strand) [W-box probe (W)]”, the binding is reported as “binds”.
